1 molecule from publication PMC2794717 can be followed below.

The target of the experiment is yeast SCF^Cdc4 ubiquitin ligase (yeast) (UniProt P52286).
Sequence of UniProt P52286 (P52286 whole entry, chain 1 of 4): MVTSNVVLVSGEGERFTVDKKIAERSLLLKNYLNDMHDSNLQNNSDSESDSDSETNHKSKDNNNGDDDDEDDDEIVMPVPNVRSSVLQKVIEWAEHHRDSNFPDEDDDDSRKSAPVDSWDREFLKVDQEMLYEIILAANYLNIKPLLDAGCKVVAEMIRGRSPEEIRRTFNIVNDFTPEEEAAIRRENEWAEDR
Sequence of UniProt P52286 (Q12018 whole entry, chain 2 of 4, further chain): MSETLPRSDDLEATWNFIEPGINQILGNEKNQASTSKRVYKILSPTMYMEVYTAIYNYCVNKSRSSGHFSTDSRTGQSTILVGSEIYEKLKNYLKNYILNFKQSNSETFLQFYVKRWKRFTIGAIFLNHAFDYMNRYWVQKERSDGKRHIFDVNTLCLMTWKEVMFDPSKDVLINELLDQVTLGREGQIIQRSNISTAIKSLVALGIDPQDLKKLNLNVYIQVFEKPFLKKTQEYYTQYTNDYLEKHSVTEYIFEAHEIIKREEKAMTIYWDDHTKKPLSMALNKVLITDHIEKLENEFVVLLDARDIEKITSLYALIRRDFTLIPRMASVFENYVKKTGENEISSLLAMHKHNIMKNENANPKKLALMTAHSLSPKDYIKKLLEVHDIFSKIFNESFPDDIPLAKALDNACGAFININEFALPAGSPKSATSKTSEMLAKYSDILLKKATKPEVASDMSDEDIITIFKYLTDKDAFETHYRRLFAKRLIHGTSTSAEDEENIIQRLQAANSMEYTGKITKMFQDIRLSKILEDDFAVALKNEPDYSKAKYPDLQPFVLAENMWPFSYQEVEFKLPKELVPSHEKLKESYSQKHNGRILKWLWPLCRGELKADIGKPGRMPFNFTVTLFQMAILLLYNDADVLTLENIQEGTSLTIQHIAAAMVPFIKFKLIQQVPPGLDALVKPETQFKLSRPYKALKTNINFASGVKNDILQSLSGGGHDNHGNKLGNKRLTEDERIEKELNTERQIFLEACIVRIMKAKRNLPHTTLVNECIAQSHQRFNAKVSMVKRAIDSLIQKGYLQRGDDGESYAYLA
Sequence of UniProt P52286 (P07834 whole entry, chain 3 of 4, further chain): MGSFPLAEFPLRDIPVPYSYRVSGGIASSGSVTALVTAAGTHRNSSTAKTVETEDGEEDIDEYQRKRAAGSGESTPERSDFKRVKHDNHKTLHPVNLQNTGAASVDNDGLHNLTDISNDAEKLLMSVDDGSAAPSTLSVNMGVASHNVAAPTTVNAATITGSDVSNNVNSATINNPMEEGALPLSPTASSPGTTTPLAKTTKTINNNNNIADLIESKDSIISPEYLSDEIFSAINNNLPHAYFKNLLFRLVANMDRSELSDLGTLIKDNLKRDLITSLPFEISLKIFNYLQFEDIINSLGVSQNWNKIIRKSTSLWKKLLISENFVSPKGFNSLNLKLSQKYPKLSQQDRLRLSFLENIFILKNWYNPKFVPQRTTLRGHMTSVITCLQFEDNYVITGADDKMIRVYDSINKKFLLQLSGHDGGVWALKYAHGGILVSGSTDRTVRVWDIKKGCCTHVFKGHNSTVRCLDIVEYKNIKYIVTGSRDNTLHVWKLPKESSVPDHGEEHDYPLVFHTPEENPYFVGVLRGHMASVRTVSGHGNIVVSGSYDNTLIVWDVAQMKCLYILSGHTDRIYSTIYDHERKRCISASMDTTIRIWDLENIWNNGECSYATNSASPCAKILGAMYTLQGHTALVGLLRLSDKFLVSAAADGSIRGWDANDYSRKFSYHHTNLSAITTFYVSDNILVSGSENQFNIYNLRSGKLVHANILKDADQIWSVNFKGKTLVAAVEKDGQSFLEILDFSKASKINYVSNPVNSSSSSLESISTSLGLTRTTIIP
Sequence of UniProt P52286 (Q08273 whole entry, chain 4 of 4, further chain): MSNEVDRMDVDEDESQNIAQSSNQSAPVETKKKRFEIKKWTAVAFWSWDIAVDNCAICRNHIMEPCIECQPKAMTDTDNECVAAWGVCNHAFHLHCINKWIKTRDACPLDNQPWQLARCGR

B1: yeast Cdc34-Δ220 (domain or fragment)
chain: MSSRKSTASSLLLRQYRELTDPKKAIPSFHIELEDDSNIFTWNIGVMVLNEDSIYHGGFFKAQMRFPEDFPFSPPQFRFTPAIYHPNVYRDGRLCISILHQSGDPMTDEPDAETWSPVQTVESVLISIVSLLEDPNINSPANVDAAVDYRKNPEQYKQRVKMEVERSKQDIPKGFIMPTSESAYISQSKLDEPESNKDMADNFWYDSDLDDDENGSVILQ
Consider B1, for which the fold increase in Km in Sic1 ubiquitylation reactions, against Cdc34-Δ230 is 3 fold.
